Experimental findings from publication PMC12119571, “The Porphyromonas gingivalis RNA-binding protein is required for growth in high levels of zinc and persistence with host cells” are described below.

Series [1] has as its target T1, RbpPg1 (Porphyromonas gingivalis W83) (UniProt Q7MWI3).
T1 sequence: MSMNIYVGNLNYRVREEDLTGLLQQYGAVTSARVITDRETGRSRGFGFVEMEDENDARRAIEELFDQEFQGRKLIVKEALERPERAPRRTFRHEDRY
Nature of the series: pull-down of total RNA, RNA-seq. Conditions: EMSA: LightShift Chemiluminescent RNA EMSA kit, on ice 30 min, TBE 10% gel at 4 C (buffer in Suppl. Tables 3-5, not in the material); His pulldown: 1 h at 4 C ….

Series [2] relates to RbpPg1 (Halo) (Porphyromonas gingivalis W83). Nature of the series: pull-down of total RNA, RNA-seq. To be noted: EMSA: LightShift Chemiluminescent RNA EMSA kit, on ice 30 min, TBE 10% gel at 4 C (buffer in Suppl. Tables 3-5, not in the material); His pulldown: 1 h at 4 C ….
The target in another series is T2, RbpPg1 (Porphyromonas gingivalis W83, UniProt Q7MWI3 1-97).
T2 sequence: T1 sequence
The experiment in a line: EMSA; shift reduced by unlabeled IRE RNA; EMSA: LightShift Chemiluminescent RNA EMSA kit, on ice 30 min, TBE 10% gel at 4 C (buffer in Suppl. Tables 3-5, not in the material); His pulldown: 1 h at 4 C. To be noted: protein: recombinant; tags: His-tag (pET30a, NcoI/XhoI); label: 3' biotin; IRE stem loop (hairpin).

Regarding PG2090 zinc efflux transcript, the binding signal (fold enrichment over HU-beta) in series [1] amounted to 71.3; in series [2], 639.
With UCCUGCUUCAACAGUGCUUGGACGGAAC (structured_RNA) [IRE control RNA (LightShift kit)], the binding result with RbpPg1 is “binds”.
